From PMC12535091

Biological target: Human β2GPI domain deletion mutant DI-DIV (human)
Experiment: ELISA; β2GPI or domain deletion mutants coated on Maxisorb plates at 1 µM overnight at 4 °C; Apo E-Biotin 50 nM, 1 h at RT; streptavidin-HRP, OD 450; % of binding to full length β2GPI

% binding: 42.5%
Substance: Human Apo E2, biotinylated (from UniProt P02649 19-317) (natural protein)
